# Test results published in PMC9278407, “Structure and regulation of the nuclear exosome targeting complex guides RNA substrates to the exosome” (Molecular Cell, 2022).
# T1: MTR4 (full length) (human, UniProt P42285 1-1042)
# T1 construct: MTR4, human, full length; also called MTR4A; MTR4B; not shown: His6, N-terminal, cleaved; GST, N-terminal, cleaved
# T1 sequence (looked up): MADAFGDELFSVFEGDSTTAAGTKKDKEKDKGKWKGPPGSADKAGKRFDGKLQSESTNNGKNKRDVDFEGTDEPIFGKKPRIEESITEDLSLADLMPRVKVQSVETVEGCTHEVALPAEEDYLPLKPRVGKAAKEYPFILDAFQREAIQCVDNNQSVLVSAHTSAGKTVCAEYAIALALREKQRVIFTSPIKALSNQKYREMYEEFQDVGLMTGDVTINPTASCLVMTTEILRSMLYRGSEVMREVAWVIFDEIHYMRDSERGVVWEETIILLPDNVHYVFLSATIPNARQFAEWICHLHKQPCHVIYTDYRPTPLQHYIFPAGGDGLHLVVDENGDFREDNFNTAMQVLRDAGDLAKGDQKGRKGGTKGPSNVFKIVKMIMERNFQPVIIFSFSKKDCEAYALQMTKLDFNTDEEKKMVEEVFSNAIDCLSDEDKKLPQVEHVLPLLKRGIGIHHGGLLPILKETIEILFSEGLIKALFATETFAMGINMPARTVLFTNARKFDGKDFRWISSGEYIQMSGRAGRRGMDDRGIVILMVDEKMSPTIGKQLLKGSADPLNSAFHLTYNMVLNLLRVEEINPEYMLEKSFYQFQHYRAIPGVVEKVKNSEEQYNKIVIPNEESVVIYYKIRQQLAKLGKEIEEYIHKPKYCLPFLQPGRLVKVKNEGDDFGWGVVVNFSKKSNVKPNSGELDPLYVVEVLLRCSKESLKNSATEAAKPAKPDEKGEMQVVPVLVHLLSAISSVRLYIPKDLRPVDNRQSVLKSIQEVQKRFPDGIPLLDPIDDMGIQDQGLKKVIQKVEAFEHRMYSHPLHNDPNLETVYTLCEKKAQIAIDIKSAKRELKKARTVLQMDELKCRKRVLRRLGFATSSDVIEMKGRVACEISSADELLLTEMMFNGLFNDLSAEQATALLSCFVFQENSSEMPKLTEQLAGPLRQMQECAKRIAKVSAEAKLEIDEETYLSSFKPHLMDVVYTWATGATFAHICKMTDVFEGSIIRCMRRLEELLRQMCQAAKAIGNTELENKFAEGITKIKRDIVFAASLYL
# T2: eYFP-(GS)3-MTR4(75-1042) (human, UniProt P42285 75-1042)
# T2 chain: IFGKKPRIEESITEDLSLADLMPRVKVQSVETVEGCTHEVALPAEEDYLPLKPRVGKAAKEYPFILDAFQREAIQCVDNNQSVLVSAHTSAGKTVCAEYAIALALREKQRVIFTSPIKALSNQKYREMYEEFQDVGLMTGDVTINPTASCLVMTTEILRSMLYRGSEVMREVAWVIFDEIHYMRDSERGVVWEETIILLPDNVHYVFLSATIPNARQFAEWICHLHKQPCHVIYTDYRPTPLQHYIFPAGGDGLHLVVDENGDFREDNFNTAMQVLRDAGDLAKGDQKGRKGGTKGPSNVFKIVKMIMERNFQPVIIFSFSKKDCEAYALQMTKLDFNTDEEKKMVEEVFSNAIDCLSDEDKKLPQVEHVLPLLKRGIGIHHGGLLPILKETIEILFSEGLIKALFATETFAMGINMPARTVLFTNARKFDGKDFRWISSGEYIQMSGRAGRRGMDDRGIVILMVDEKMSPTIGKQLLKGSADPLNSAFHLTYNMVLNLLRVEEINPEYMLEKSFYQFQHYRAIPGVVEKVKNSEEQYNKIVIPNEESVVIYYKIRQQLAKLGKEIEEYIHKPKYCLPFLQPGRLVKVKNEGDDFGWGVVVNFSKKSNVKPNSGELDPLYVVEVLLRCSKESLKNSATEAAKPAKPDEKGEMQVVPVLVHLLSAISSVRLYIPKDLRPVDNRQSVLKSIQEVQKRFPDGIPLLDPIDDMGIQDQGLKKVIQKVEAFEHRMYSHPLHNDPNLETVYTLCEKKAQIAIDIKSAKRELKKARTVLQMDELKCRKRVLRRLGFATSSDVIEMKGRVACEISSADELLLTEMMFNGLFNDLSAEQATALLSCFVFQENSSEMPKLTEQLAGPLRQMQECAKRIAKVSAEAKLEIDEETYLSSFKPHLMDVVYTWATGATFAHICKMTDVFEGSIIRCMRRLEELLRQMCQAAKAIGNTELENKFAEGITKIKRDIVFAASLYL
# T3: eYFP-(GS)3-MTR4(75-1042) (human, UniProt P42285 75-1042)
# T3 construct: MTR4, human, residues 75-1042, joined to eYFP by a (GS)3 linker; also called eYFP-tagged MTR4; source: E. coli BL21 Star (DE3) pRARE, purified; not shown: eYFP, N-terminal, kept
# T3 sequence (looked up): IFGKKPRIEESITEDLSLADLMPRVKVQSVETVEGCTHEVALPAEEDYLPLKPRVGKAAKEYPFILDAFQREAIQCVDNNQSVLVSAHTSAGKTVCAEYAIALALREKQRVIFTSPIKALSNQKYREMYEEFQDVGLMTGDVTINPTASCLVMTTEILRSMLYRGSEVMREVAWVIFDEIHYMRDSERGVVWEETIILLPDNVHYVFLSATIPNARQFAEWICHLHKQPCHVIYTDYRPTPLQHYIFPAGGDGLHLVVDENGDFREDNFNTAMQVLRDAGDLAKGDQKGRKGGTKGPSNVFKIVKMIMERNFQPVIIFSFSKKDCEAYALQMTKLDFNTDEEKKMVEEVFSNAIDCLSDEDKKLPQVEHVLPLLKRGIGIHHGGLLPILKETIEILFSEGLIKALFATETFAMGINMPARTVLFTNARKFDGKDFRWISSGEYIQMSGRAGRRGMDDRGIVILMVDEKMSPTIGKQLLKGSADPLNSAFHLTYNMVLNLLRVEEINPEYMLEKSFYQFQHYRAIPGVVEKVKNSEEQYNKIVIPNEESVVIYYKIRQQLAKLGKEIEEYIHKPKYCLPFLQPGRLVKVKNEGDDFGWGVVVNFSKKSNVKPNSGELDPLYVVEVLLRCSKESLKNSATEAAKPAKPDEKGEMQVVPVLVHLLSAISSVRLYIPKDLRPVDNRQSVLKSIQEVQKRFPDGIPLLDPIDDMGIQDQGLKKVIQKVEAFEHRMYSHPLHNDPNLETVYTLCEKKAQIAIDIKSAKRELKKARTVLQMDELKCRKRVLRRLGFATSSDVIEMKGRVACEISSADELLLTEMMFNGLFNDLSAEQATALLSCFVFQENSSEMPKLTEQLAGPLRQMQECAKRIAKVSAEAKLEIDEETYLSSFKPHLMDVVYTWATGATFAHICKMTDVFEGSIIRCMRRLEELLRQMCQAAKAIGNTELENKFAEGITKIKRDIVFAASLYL
# Experiments:
# MTR4 (full length) [1] = target: T1, MTR4 (full length); assay: cryo-EM structure; NEXT^L at 2 μM with equimolar 5'-hairpin-U60 RNA and 2 mM AMPPNP, 20 mM HEPES-NaOH pH 7.5, 50 mM NaCl, 2 mM DTT, 2 mM MgCl2; cross-linked with 0.03% glutaraldehyde; conditions: both partners purified
# eYFP-(GS)3-MTR4(75-1042) [2] = target: T2, eYFP-(GS)3-MTR4(75-1042); assay: MST
# eYFP-(GS)3-MTR4(75-1042) [3] = target: T3, eYFP-(GS)3-MTR4(75-1042); assay: MST; eYFP-(GS)3-MTR4(75-1042) fixed at 50 nM, increasing ZCCHC8/RBM7; 50 mM HEPES-NaOH pH 7.5, 150 mM NaCl, 2 mM DTT, 10% glycerol, 0.1% Pluronic F-127; room temperature; triplicates; conditions: both partners purified
# [4] = target: the molecule itself; assay: cryo-EM structure; NEXT^S at 15 μM with 1.2 molar excess RNA-U20 and 2 mM AMPPNP, 20 mM HEPES-NaOH pH 7.5, 150 mM NaCl, 2 mM DTT, 2 mM MgCl2; cross-linked with 1 mM BS3
# MTR4 (full length) [5] = target: T1, MTR4 (full length); assay: as above; conditions: both partners purified
# MTR4 (full length) [6] = target: T1, MTR4 (full length); assay: SEC; pre-assembled complexes of full-length MTR4, RBM7(RRM) and N-terminally truncated ZCCHC8 constructs ending at 337; Superdex 200 Increase 3.2/300; 20 mM Hepes-NaOH pH 7.5, 150 mM NaCl, 2 mM DTT; 300 pmol in 30 μL injected; peak fractions on SDS-PAGE; conditions: both partners purified
# [7] = target: the molecule itself; assay: as above
binder,measurement,setting,value
"ZCCHC8 deletion mutant Δ416-506 (natural protein, human, ZCCHC8, human, deletion mutant lacking residues 416-506 but still including the C-terminal domain; Construct adapted from Puno and Lima (2018); also called ZCCHC8^L; hZCCHC8(Δ416-506); source: E. coli BL21 Star (DE3) pRARE, co-expressed and co-purified with RBM7(1-98); not shown: His6, N-terminal, cleaved; SUMO, N-terminal, cleaved) MAAEVYFGDLELFEPFDHPEESIPKPVHTRFKDDDGDEEDENGVGDAELRERLRQCEETIEQLRAENQELKRKLNILTRPSGILVNDTKLDGPILQILFMNNAISKQYHQEIEEFVSNLVKRFEEQQKNDVEKTSFNLLPQPSSIVLEEDHKVEESCAIKNNKEAFSVVGSVLYFTNFCLDKLGQPLLNENPQLSEGWEIPKYHQVFSHIVSLEGQEIQVKAKRPKPHCFNCGSEEHQMKDCPMPRNAARISEKRKEYMDACGEANNQNFQQRYHAEEVEERFGRFKPGVISEELQDALGVTDKSLPPFIYRMRQLGYPPGWLKEAELENSGLALYDGKDGTDGETEVGEIQQNKSVTYDLSKLVNYPGFNISTPRGIPDEWRIFGSIPMQACQQKDVFANYLTSNFQAPGVKSGSGAVDEDALTLEELEEQQRRIWAALEQAESVNSDSDVPVDTPLTGNSVASSPCPNELDLPVPEGKTSEKQTLDEPEVPEIFTKKSEAGHASSPDSEVTSLCQKEKAELAPVNTEGALLDNGSVVPNCDISNGGSQKLFPADTSPSTATKIHSPIPDMSKFATGITPFEFENMAESTGMYLRIRSLLKNSPRNQQKNKKASE",binding result,MTR4 (full length) [1],binds
dimeric ZCCHC8(41-337)/RBM7(RRM) (complex) chain 1: ENGVGDAELRERLRQCEETIEQLRAENQELKRKLNILTRPSGILVNDTKLDGPILQILFMNNAISKQYHQEIEEFVSNLVKRFEEQQKNDVEKTSFNLLPQPSSIVLEEDHKVEESCAIKNNKEAFSVVGSVLYFTNFCLDKLGQPLLNENPQLSEGWEIPKYHQVFSHIVSLEGQEIQVKAKRPKPHCFNCGSEEHQMKDCPMPRNAARISEKRKEYMDACGEANNQNFQQRYHAEEVEERFGRFKPGVISEELQDALGVTDKSLPPFIYRMRQLGYPPGWLKEAELENSGLALYD chain 2: MGAAAAEADRTLFVGNLETKVTEELLFELFHQAGPVIKVKIPKDKDGKPKQFAFVNFKHEVSVPYAMNLLNGIKLYGRPIKIQFRSGSSHAPQDVSLS,Kd,eYFP-(GS)3-MTR4(75-1042) [2],120 nM
"monomeric ZCCHC8(177-337)/RBM7(RRM) (complex, human, RBM7, human, residues 1-98 with the RRM domain; also called monomeric ZCCHC8-RBM7 unit; source: E. coli BL21 Star (DE3) pRARE, co-expressed and co-purified; not shown: His6, N-terminal, cleaved; GST, N-terminal, cleaved; Z tag or SUMO, N-terminal, cleaved; copies: 1 + 1) chain 1: NFCLDKLGQPLLNENPQLSEGWEIPKYHQVFSHIVSLEGQEIQVKAKRPKPHCFNCGSEEHQMKDCPMPRNAARISEKRKEYMDACGEANNQNFQQRYHAEEVEERFGRFKPGVISEELQDALGVTDKSLPPFIYRMRQLGYPPGWLKEAELENSGLALYD chain 2: MGAAAAEADRTLFVGNLETKVTEELLFELFHQAGPVIKVKIPKDKDGKPKQFAFVNFKHEVSVPYAMNLLNGIKLYGRPIKIQFRSGSSHAPQDVSLS",binding result,eYFP-(GS)3-MTR4(75-1042) [3],binds
same,Kd,eYFP-(GS)3-MTR4(75-1042) [2],540 nM
"ZCCHC8 (residues 41-337) (domain or fragment, human, UniProt Q6NZY4 41-337, looked up, also called ZCCHC8^S; not shown: His6, N-terminal, cleaved; GST, N-terminal, cleaved) ENGVGDAELRERLRQCEETIEQLRAENQELKRKLNILTRPSGILVNDTKLDGPILQILFMNNAISKQYHQEIEEFVSNLVKRFEEQQKNDVEKTSFNLLPQPSSIVLEEDHKVEESCAIKNNKEAFSVVGSVLYFTNFCLDKLGQPLLNENPQLSEGWEIPKYHQVFSHIVSLEGQEIQVKAKRPKPHCFNCGSEEHQMKDCPMPRNAARISEKRKEYMDACGEANNQNFQQRYHAEEVEERFGRFKPGVISEELQDALGVTDKSLPPFIYRMRQLGYPPGWLKEAELENSGLALYD",stoichiometry N,[4],2
same,binding result,MTR4 (full length) [5],binds
"ZCCHC8 (residues 177-337) (domain or fragment, human, UniProt Q6NZY4 177-337, looked up, source: E. coli BL21 Star (DE3) pRARE, co-expressed and co-purified with RBM7(1-98); not shown: His6, N-terminal, cleaved; GST, N-terminal, cleaved) NFCLDKLGQPLLNENPQLSEGWEIPKYHQVFSHIVSLEGQEIQVKAKRPKPHCFNCGSEEHQMKDCPMPRNAARISEKRKEYMDACGEANNQNFQQRYHAEEVEERFGRFKPGVISEELQDALGVTDKSLPPFIYRMRQLGYPPGWLKEAELENSGLALYD",binding result,MTR4 (full length) [6],binds
"ZCCHC8 (residues 91-337) (domain or fragment, human, UniProt Q6NZY4 91-337, looked up, source: E. coli BL21 Star (DE3) pRARE, co-expressed and co-purified with RBM7(1-98); not shown: His6, N-terminal, cleaved; GST or SUMO, N-terminal, cleaved) DGPILQILFMNNAISKQYHQEIEEFVSNLVKRFEEQQKNDVEKTSFNLLPQPSSIVLEEDHKVEESCAIKNNKEAFSVVGSVLYFTNFCLDKLGQPLLNENPQLSEGWEIPKYHQVFSHIVSLEGQEIQVKAKRPKPHCFNCGSEEHQMKDCPMPRNAARISEKRKEYMDACGEANNQNFQQRYHAEEVEERFGRFKPGVISEELQDALGVTDKSLPPFIYRMRQLGYPPGWLKEAELENSGLALYD",binding result,[7],binds
same,binding result,MTR4 (full length) [6],binds
